Experimental data as given in the DeepSol protein solubility set.

Assay: soluble on expression in E. coli; label from the status in PepcDB or PDB records

| Sequence | soluble on expression in E. coli |
| --- | --- |
| MLDYFFNPKGIAVIGASNDPKKLGYEVFKNLKEYKKGKVYPVNIKEEEVQGVKAYKSVKDIPDEIDLAIIVVPKRFVKDTLIQCGEKGVKGVVIITAGFGETGEEGKREEKELVEIAHKYGMRIIGPNCVGIMNTHVDLNATFITVAKKGNVAFISQSGALGAGIVYKTIKEDIGFSKFISVGNMADVDFAELMEYLADTEEDKAIALYIEGVRNGKKFMEVAKRVTKKKPIIALKAGKSESGARAASSHTGSLAGSWKIYEAAFKQSGVLVANTIDEMLSMARAFSQPLPRGNKVAIMTNAGGPGVLTADELDKRGLKLATLEEKTIEELRSFLPPMAAVKNPVDMIASARGEDYYRTAKLLLQDPNVDMLIAICVVPTFAGMTLTEHAEGIIRAVKEVNNEKPVLAMFMAGYVSEKAKELLEKNGIPTYERPEDVASAAYALVEQAKNVGILEVE | soluble |
| MKHHHHHHQGKITLYEDRGFQGRHYECSSDHTNLQPYLSRCNSARVDSGCWMLYEQPNYSGLQYFLRRGDYADHQQWMGLSDSVRSCRLIPHSGSHRIRLYEREDYRGQMIEFTEDCSCLQDRFRFNEIHSLNVLEGSWVLYELSNYRGRQYLLMPGDYRRYQDWGATNARVGSLRRVIDFS | soluble |
| MNIAIIGGGIAGLATAHLLCDDHRVTLFEANDYLGGHTNTVDVSLDGTTLAVDTGFIVFNERTYPNFIRLLERLNVASRPSVMSFSVTSERNGLEYCATNLDTLFAQRRNFLNRPFWRMLREIVRFNREARELYDSHEMTLTLGDYLKNRGYSVTFVENFLVPMGAAIWSADPKRFAMFPAAAFVRFFTNHGILNVVDQPRWRVVAGGSREYVAPLARPFRDRVRLSTPVDRVRRFPDRVAVTTRGGETEYFDQVVLACHSDQALAMLTDPSDAERELLSAIPYQENDTVLHTDSRLLPGLPKARASWNCRIPRHERDGVFVTYWMNRLQSLATSTDFCVTLNGTEAIAPERIIRRITYHHPVYSPAAFEAQKRRDEISGTNRTWYCGAYWGYGFHEDGLNSALAVCRRFGRGLLEHHHHHH | not soluble |
| ARNKALKADGAFNGVEKEGLFKAMKHYGYEGLAVLVSERGHYSLKKAADVLGLGQEGLVAVKTDANNRIVVDDLKTKIAELKEQNIKPIAVIGVAGTTETGSVDPLSQIAQVCQEHNCHFHVDAAWGGATLMSNHYRHLLEGVELADSVTIDAHKQLYIPMGAGMVLFKDPDAMKSIEHHAQYILRKGSKDLGSHTLEGSRSGMAMLVYAAMHIISRPGYELLIDQSIEKARYFADLIKQQDDFELVSEPELCLLTYRYLPPLIREALDKAEGTQKEKLNELINQLTQFIQKRQRETGKSFVSRTRLNPDQWQRMNTIVFRVVLANPLTTRDILSSVLDEQREIAKQAPSLTAKIEEMASDILGA | not soluble |
| MALLHGGQLQQVAKQYNIPPSDWIDVSTGIAPISYPIPIIPLSVWQQLPQQNPDLIAAAQQYYQCSQLMITNGSQAIIKALPALYRQKNAESQDVYLPERGYKEHAHAWKNAGYNLHFYQEFLPEMSEILPNSVLVIINPNNPTGQFFNGQVIAQYQERLKLINGLLVLDEAFIDVVPGNQSYYNQLENSHSLVLRSFGKFFGLAGIRIGFLVANGYWCGAFKELLGPWQINGPAQLIAQHALQDTSWQTRQKDTLTRLRIAQEHMLRQAFPQIILREINGCNLFLTLSFHQQDTAKKLYHLLCQQGVYCRLADEQDTLRFGITTEELLERLTLACRQAYQQLT | not soluble |
| PPHVKFIKEKDICSYEEASDPGHFRWYPKGKLMRDLLADYVYNLVVNMGAMPVETPIMYDLGNPAIREHADKFGERQYRFRQGNKELMLRFAACFGQFMMKKDMYLLPRYLPLKLYELSTYSFRYEQRGELVGLKRLRCFTMPDMHTVCLNLEQAMEEFEKQFWECLKTGDDLNLSYSVIFRFTKDFFDEHRDWFFKIAKEYKNKYGKDVILEILPKRKHYWVGKVDIAVIDSLGRPIENPTVQIDVESAKRFDIKVHTNEGEIYPIILHCSPTGSIERVLCGLLEKAA | not soluble |
| MAHHHHHHMNCPIVLKTLEQNKNFCVINPEAMDSCIYISLDYFKENLITSCTHKKPLPHTCNVKNEISGIKNLKTEQIELNEFIQEYYKRLIINDDEIMWNVCYFRKSKEFLTILLLEFLKSMLTVLNKYNGKCIFKKTEYLVNCGHHITHRIWIQMFYEYGFESVDADTKKNMKNYPIIQQEDGNNRTLYLTIADHYKWDA | not soluble |
| GKLHEPYEIIVIDVPSEYQGNVTQLLATRKGLMQSMSTTPGSDWIRMEFRIPARGLIGFRTQFMTETRGTGIANSYSDGMDVWAGEIKGRAHGSLVADRSGQITAYALTQLADRGSFFVEPGTETYEGVV | not soluble |
| MGSDKIHHHHHHMKHYQTIIIGAGAAGIGFGSAMQRLGLTNFLIIEKGHIGESFLRWPRTTQFITPSFTTNGFGFPDLNAVIPDTSPAFSFEKEHLSGVEYARYLQLVAAHYNLPIQNETSVLSIDKRDSLFVIKTSKGDFSADYLIMATGEFQNPNTIDIKGADLGMHYGQVDNFHIKSDNPFIIIGGNESACDALTHLVYLGNQVELYTDTFGRKESNPDPSISLSPLTKERLKHIQDHKKEYYSISEGKKAIEIKQIGKQYQVTFDDGSTAESFHKPILSTGFLNTCHLIDGIALFEYDKNQLPIVTEDDESTIVNNCFLIGPSLRQRDTIFCYIYKFRQRFVPVINHIAQREGIILDEDTLEFFKENQMYLDNLACCDVNCDC | not soluble |
| MSFNRISAAEAASLIKHGYNIGLSGFTPAGTAKAVTAELAKIAEAEHAKGNPFQVGIFTGASTGESCDGVMSRAKAIRYRAPYTTNSDFRKAVNNGEIAYNDIHLSQMAQEVRYGFMGKVNVAIIEACEVTPDGKIYLTAAGGISPTICRLADQIIVELNAAHSKSCMGLHDVYEPLDPPYRREIPIYKPSDRIGLPYIQVDPKKIVGVVETNWPDEARSFADADPLTDKIGQNVADFLAADMKRGIIPSTFLPLQSGVGNIANAVLGALGRDKTIPAFEMYTEVIQNSVIGLIREGRIKFGSACSLTVTNDCLEGIYNDMDFFRDKLVLRPSEISNNPEVVRRLGIISINTAIEVDLYGNVNSTHIGGTKMMNGIGGSGDFTRNAYISIFTCPSVAKEGKISAIVPMVSHLDHSEHSVNIIITEQGVADLRGKSPKERAQAIIENCAHPDYKQLLWDYLKLAGGRAQTPHAIQAALGMHAELAKSGDMKNTNWAEYARLEHHHHHH | not soluble |
| MGSDKIHHHHHHACCQGAASSGNAGKNASRVRIASNDSAKLVPDKALNDASCVLAGLPVDKASGKLYALTRTKEWKNHARYMDQIWNVFRQTAPRLVAFSQTELEDINTRCHTLFYPFGGPDFLFANAFFPEMDTYVLIGLEPAGTAPKVKHPSAETYRLYQNAVSNVLNLSFFNDMDKELANDTIDGVVPIYSLLMARGNRKIVSIQEVWLSETGDLFERKEGDTIRNTCSAGMEVRFFRPGASRLQTLYYFCTDISNEGLQANRPLQAFMDRFDAETTATFVKSASYLMHEPAFSRIRETILQKSSAVVQDDSSIPLSCFDPEVWSVTLYGTFYKPISTFSQYLQPQLRDAYQLGDPNPLNFRIGYARQSNLQVARRK | not soluble |
| MTTDQSKLEAINQALRAQRQLVRQLDDQQASLERQLQGLTGDSAGWAADTDPALGHVLEAFHALLGSLTESLSQGDAAQLLARCAAELLPDTTGAIFVDQAGVEPANRAIAAWRGAELLTDPNALHYECTEDQAAHRLNIEAQGLYLGVVELRPLSPGRALRAREQQTLQMLASAAGLALATHTLRYRLRHRNVRDPLTGLFNRRYAEDTLERELHRAQRHQLPLSVVLIDLDRFEAYNQRHGQNAGDRMLQAMSDLLQHSFRGSDICARAAGQRFLLVLPEAAIRDAIERANDLRRELAKVRVHLRGLHLPAMTVSMGVAGYPEHADSSDDLMAAADAALQLAKHSGGNTCALAEKVPLSPHNE | soluble |
| MRKIKLIAVVGPTAVGKTALGIELAKTFNGEIISGDSQQVYQKLDIGTAKASKEEQEQAYHHLIDVREVNENYSVYDFVKEAKVAIDTIISKGKIPIIVGGTGLYLQSLFEGYHLGGEVNQETLMAYREKLESLSDEDLFEKLTEQSIIIPQVNRRRAIRALELAKFGNDLQNSESPYDVLLIGLNDDRQVLYDRINRRVDLMMDNGLLDEAKWLYDNYPSVQASKGIGYKELFPYFSKQIPLEEAVDKLKQNTRRFAKRQLTWFRNRMNVEFIMVGEENYQQKIKRKVSDFLSSKLEHHHHHH | soluble |
| AEPDQAPELNEAQREAVDTIGALSAFQPVLLHGVTGSGKTEVYLHAAARVLQAGRQVLLMVPEINLTPQLEGALRARLEALVGPQGVAILHSGLADGERVQAWARAQRGQARLLLGTRMSIFAPLPELGLIVVDEEHDPSYKQQEGLRYSARDLAIWRARDLDIPVVLGSATP | not soluble |
| GMADIDQASKTEMEAAAFRHLLRHLDEHKDVQNIDLMIQADFCRNCLAKWLMEAATEQGVELDYDGAREYVYGMPFAEWKTLYQKPASEAQLAAFEAKQAARKR | soluble |
| MRRLGKQEIEDIAVGAALLGTGGGGDPYIGKLMALQAIEEYGPIQLLSVDEIDDEAVVVPSGMMGAPTVMIEKVPNGEEAIAAFQTLEQYLGKKIFATMPIEAGGINSLLPLALAARLGLPVVDVDGMGRAFPELQMVTFYLDGISATPLVIADEKGNHSVLNTVNNMWAERIARAATIQMGGSVMMAIYPMVGKQLKESGIHHILKLEEDIGRIIREAKGTNANPIAEVLSLVGGFELFKGKVVDINRKTESGFARGTAHIQGFDLYHDQTLEIKFQNEHLLAKTPDQLLCVTPDLIAILDSETGLPITTEGLKYGARCVVIGIPCHPKWRTAKGIETCGPAYFGYDVDYVPVENLVKEGAQTKLEHHHHHH | soluble |
| NGEEHEQTHRAIFRFVPRHEDELELEVDDPLLVELQAEDYWYEAYNMRTGARGVFPAYYAIEVTKEPEHMA | soluble |
| AHHHHHHGSIDLILLAGKLKRIPRMGWLIKGVPNPESVADHSYRVAFITLLLAEELKKKGVEIDVEKALKIAIIHDLGEAIITDLPLSAQKYLNKEEAEAKALKDVLPEYTELFEEYSKALTLEGQLVKIADKLDMIIQAYEYELSGAKNLSEFWNALEDLEKLEISRYLREIIEEVRRLKDDH | soluble |
| SLKINQEEDTVSSEKNKLCDNNNNNNMVHTRHIYNVCELNKCLRENKLIPYNNIYKMKHLYLNILDTFDENILKHVNKAHLFIDSVIQKKKNILIHCMAGISRCSSIILSYVSKKNKKGIEYNFNLLKSKYPFAHPNENFYRQLLLYEKMNYTLDGCTDYHNIYK | soluble |
| MGYRNTGSPPPPQIGGLYGDRNPNPYGTVNLGGGSPYPGGLEEYNIRPAAPFSGLVGGSRSGYYGSTVGMRRGAVVPPMSSRKTKIPQTEYPPDYASNDLMNSFNGATNSAIPSLRELATYASRYGPAYLRERFGSHDSQLERMLYGGSGPQIPSRGGGIPIDYNMNIASNHWNRGIGSPMGIMSRDVDSYQHDDAAKANKKTTTGSPSTTSTRKPRKARKPTKKTVAAAPSSSSNTSTTAKPAKTVKTSEKSA | not soluble |
| MATSFPVLCLPNKNIRDVLQNMSTCNLIAFSLCSKATKSHVMHLKNDIQQISIKAFLSIDINILSHNQEVTSLVFFKKDYGRWNFESCESVTATETLTPLEPESDRVWVKRGFKLRDWIDHVMEIFNCSRIHEIYISRIGHEEHYISLSNAVKELKTETIFFSFCSDTVVQSVVANVQSNDISFNLSFNIEPSMQKHKVLTRHFERVSFSKDDTREALTLNDLLITNVSQLNISAHHLSFEELNIFIRHLISGSNRRLKIVGIVCAEATRNMQILLKGISHSVYSAELKIVARNENDYQLGDTIYVYQNCGRRLAMQTYLFEGVEKIVMRVY | not soluble |
